Laboratory results from patent publication US20240247080A1, “GLP1/GIP/NPY2 RECEPTOR TRIPLE AGONISTS” (Boehringer Ingelheim International GmbH, priority 2022, published 2024).
Where a chain is given by its changes, count along the chain named. Starred links: 1 amine or outer side, 2 acyl side, 3 side chain; linkers in the order of their positions; H or OH if unused. Non-standard residues stand in square brackets, D forms with d. Groups on a side chain read outwards from the residue. No end group written: not given here. *: point of attachment. C20 diacid = O=C(O)CCCCCCCCCCCCCCCCCCC(=O)*; γGlu = O=C(O)[C@H](CCC(=O)[*:2])N[*:1]; εLys = N[C@@H](CCCCN[*:1])C(=O)[*:2]; AEEA = NCCOCCOCC(=O)O; Aib = CC(C)(N)C(=O)O

T1: human GIP receptor (human, UniProt P48546 22-466)
T1 sequence (looked up): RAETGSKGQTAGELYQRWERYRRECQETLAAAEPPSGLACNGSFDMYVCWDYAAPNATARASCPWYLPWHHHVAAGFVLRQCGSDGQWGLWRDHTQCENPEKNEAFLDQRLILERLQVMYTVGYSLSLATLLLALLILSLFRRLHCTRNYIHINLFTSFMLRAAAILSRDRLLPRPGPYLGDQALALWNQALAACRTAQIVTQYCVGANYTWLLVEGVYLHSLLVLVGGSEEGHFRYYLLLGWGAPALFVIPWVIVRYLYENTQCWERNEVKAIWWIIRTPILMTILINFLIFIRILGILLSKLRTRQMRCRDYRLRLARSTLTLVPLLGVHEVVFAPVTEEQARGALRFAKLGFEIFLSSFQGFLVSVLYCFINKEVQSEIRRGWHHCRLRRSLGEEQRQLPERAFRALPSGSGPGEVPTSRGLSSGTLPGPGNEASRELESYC

T2: human neuropeptide Y2 receptor (human, UniProt P49146 1-381)
T2 sequence (looked up): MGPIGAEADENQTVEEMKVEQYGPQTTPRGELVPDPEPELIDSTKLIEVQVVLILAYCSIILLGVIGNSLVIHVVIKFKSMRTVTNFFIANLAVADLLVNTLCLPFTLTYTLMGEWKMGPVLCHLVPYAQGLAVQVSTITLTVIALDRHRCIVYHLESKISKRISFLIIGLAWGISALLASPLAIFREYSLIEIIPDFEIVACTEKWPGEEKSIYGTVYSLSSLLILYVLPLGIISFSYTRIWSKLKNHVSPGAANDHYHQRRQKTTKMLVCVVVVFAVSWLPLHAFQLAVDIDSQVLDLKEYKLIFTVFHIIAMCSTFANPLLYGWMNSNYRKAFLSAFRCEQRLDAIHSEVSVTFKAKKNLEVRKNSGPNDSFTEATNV

B1: Compound 93 (peptide)
peptide: YXEGTFTSDYSIXLEKQAQXAFVEWLIKGGPSEYESLRHYYNWLTRQRY
modifications: Aib at 2, 13, 20; K28 side chain: C20DA-gGlu-gGlu-gGlu-gGlu-gGlu-gGlu-eLys; C-terminal NH2
B2: Compound 96 (peptide)
peptide: B1 peptide with E33S, Y34G, E35V
modifications: Aib at 2, 13, 20; K28 side chain: C20DA-gGlu-gGlu-gGlu-gGlu-gGlu-gGlu-eLys; C-terminal NH2
B3: Compound 102 (peptide)
peptide: B1 peptide with K16A, E33S, Y34G, E35A
modifications: Aib at 2, 13, 20; K28 side chain: C20DA-gGlu-gGlu-gGlu-gGlu-gGlu-gGlu-eLys; C-terminal NH2
B4: Compound 112 (peptide)
peptide: B1 peptide with E24Q, E33S, Y34G, E35A
modifications: Aib at 2, 13, 20; K28 side chain: C20DA-gGlu-gGlu-gGlu-gGlu-gGlu-OEG-OEG; C-terminal NH2
B5: Compound 114 (peptide)
peptide: B1 peptide with E24Q, Y34G, E35V
modifications: Aib at 2, 13, 20; K28 side chain: C20DA-gGlu-gGlu-gGlu-gGlu-gGlu-gGlu-eLys; C-terminal NH2
B6: Compound 103 (peptide)
peptide: B1 peptide with E33S, Y34G, E35A, L37X
modifications: Aib at 2, 13, 20; Tle at 37; K28 side chain: C20DA-gGlu-gGlu-gGlu-gGlu-gGlu-gGlu-eLys; C-terminal NH2
B7: Compound 106 (peptide)
peptide: B1 peptide with E33S, Y34G, E35A, Y41I
modifications: Aib at 2, 13, 20; K28 side chain: C20DA-gGlu-gGlu-gGlu-gGlu-gGlu-gGlu-eLys; C-terminal NH2
B8: Compound 98 (peptide)
peptide: B1 peptide with E33S, Y34A, E35A
modifications: Aib at 2, 13, 20; K28 side chain: C20DA-gGlu-gGlu-gGlu-gGlu-gGlu-gGlu-eLys; C-terminal NH2
B9: Compound 107 (peptide)
peptide: B1 peptide with E33S, Y34G, E35L
modifications: Aib at 2, 13, 20; K28 side chain: C20DA-gGlu-gGlu-gGlu-gGlu-gGlu-gGlu-eLys; C-terminal NH2
B10: Compound 99 (peptide)
peptide: B1 peptide with K16G, E33S, Y34G, E35A
modifications: Aib at 2, 13, 20; K28 side chain: C20DA-gGlu-gGlu-gGlu-gGlu-gGlu-gGlu-eLys; C-terminal NH2
B11: Compound 111 (peptide)
peptide: B1 peptide with E24Q, Y34P, E35A
modifications: Aib at 2, 13, 20; K28 side chain: C20DA-gGlu-gGlu-gGlu-gGlu-gGlu-OEG-OEG; C-terminal NH2
B12: Compound 95 (peptide)
peptide: B1 peptide with E33S, Y34P, E35A
modifications: Aib at 2, 13, 20; K28 side chain: C20DA-gGlu-gGlu-gGlu-gGlu-gGlu-gGlu-eLys; C-terminal NH2
B13: Compound 115 (peptide)
peptide: B1 peptide with E24Q, Y34G, E35A
modifications: Aib at 2, 13, 20; NMeQ at 47; K28 side chain: C20DA-gGlu-gGlu-gGlu-gGlu-gGlu-gGlu-eLys; C-terminal NH2
B14: Compound 94 (peptide)
peptide: B1 peptide with E33S, Y34G, E35I
modifications: Aib at 2, 13, 20; K28 side chain: C20DA-gGlu-gGlu-gGlu-gGlu-gGlu-gGlu-eLys; C-terminal NH2
B15: Compound 104 (peptide)
peptide: B1 peptide with X13L, E33S, Y34G, E35A
modifications: Aib at 2, 20; K28 side chain: C20DA-gGlu-Glu-gGlu-gGlu-gGlu-gGlu-eLys; C-terminal NH2

Legend:
Assay in all cases: cell-based or functional assay
[1] = molecular target: human GLP-1 receptor (human, UniProt P43220 24-463)
[2] = molecular target: T1, human GIP receptor
[3] = molecular target: T2, human neuropeptide Y2 receptor

Row | Binder | EC50 CreLuc hGLP1R 0.5% hP [1] [nM] | EC50 CreLuc hGLP1R 100% hP [1] [nM] | EC50 CreLuc hGIPR 0.5% hP [2] [nM] | EC50 CreLuc hGIPR 100% hP [2] [nM] | EC50 CreLuc hNPY2R 0.5% hP [3] [nM] | EC50 CreLuc hNPY2R 100% hP [3] [nM]
1 | Y[Aib]EGTFTSDYSI[Aib]LEEQAQ[Aib]AFVEWLIK([εLys-AEEA-γGlu-γGlu-γGlu-γGlu-γGlu-C20 diacid])GGPSSGASLRHYYNWLTRQRY-NH2 [Compound 110] | 0.15 | 1.53 | 0.15 | 1.14 | 17.5 | 42.5
2 | Y[Aib]EGTFTSDYSI[Aib]LEKQAQ[Aib]AFVQWLIKGGPEEGASLRHYYNWLTRQRY-NH2 (not fully specified (residue 28)) [Compound 108] | 0.4 | 6.16 | 0.3 | 2.14 | 14.8 | 57.4
3 | Y[Aib]EGTFTSDLSI[Aib]LEKQAQ[Aib]AFVQWLIKGGPSEGASLRHYYNWLTRQRY-NH2 (not fully specified (residue 28)) [Compound 113] | 0.19 | 3.72 | 0.56 | 3.84 | 19.5 | 49.9
4 | B1 | 0.22 | 8.97 | 0.14 | 2.35 | 15.3 | 85.7
5 | B2 | 0.14 | 2.12 | 0.19 | 1.07 | 15.5 | 44.8
6 | B3 | 0.33 | 3.48 | 0.98 | 4.01 | 24.9 | 80.7
7 | B4 | 0.06 | 1.7 | 0.19 | 0.83 | 8.05 | 27.6
8 | B5 | 0.15 | 5.56 | 0.27 | 2.34 | 7.73 | 44.8
9 | B6 | 0.13 | 3.19 | 0.26 | 1.73 | 12 | 50.7
10 | B7 | 0.14 | 3.56 | 0.26 | 2.17 | 20.5 | 74.2
11 | B8 | 0.31 | 8.22 | 0.44 | 3.41 | 15.1 | 64.2
12 | B9 | 0.13 | 1.88 | 0.27 | 0.99 | 16.7 | 58.5
13 | B10 | 0.41 | 6.72 | 0.91 | 8.52 | 16.8 | 85.9
14 | B11 | 0.12 | 5.32 | 0.55 | 1.96 | 13.4 | 36.8
15 | B12 | 0.13 | 2.76 | 0.13 | 0.75 | 20.6 | 56.9
16 | B13 | 0.12 | 3.45 | 0.51 | 1.89 | 7.8 | 30.6
17 | B14 | 0.09 | 1.98 | 0.22 | 1.04 | 12.3 | 40.2
18 | B15 | 0.09 | 2.06 | 0.06 | 0.6 | 13.4 | 50.7
19 | Y[Aib]EGTFTSDYSI[Aib]LEKQAQ[Aib]AFVEWLLKGGPSSGASLRHYYNWLTRQRY-NH2 (not fully specified (residue 28)) [Compound 109] | 0.28 | 3.32 | 0.09 | 0.64 | 10.8 | 52.2
20 | Y[Aib]EGTFTSDYSI[Aib]LEKQAQ[Aib]AFVQWLIKGGPSEPASLRHYYNWLTRQRY-NH2 (not fully specified (residue 28)) [Compound 101] | 0.1 | 2.5 | 0.15 | 1.43 | 12.1 | 26.5
21 | Y[Aib]EGTFTSDYSI[Aib]LEEQAQ[Aib]AFVEWLIK([εLys-γGlu-γGlu-γGlu-γGlu-C20 diacid])GGPSSGASLRHYYNWLTRQRY-NH2 [Compound 97] | 0.15 | 3.08 | 0.14 | 0.95 | 14.9 | 70.4
22 | Y[Aib]EGTFTSDYSI[Aib]LEEQAQ[Aib]AFVEWLIKGGPSSGASLRHYYNWLTRQRY-NH2 (not fully specified (residue 28)) [Compound 100] | 0.12 | 2.21 | 0.1 | 0.87 | 11.2 | 48
23 | Y[Aib]EGTFTSDYSI[Aib]LEEQAQ[Aib]AFVEWLIKGGPSSGASLRHYYNWLTRQRY-NH2 (not fully specified (residue 28)) [Compound 105] | 0.14 | 1.66 | 0.2 | 0.87 | 10.4 | 69
